Target: HLA class I (human)
Test: cell-based or functional assay

## W6/32, the class I-specific antibody, from hybridoma culture supernatants (ATCC: HB95)
  reduction in HIV-1 envelope-specific CTL activity (PBMCs from LB, E:T 25:1, 1:4 dilution of W6/32 supernatant): 73%
  specific lysis value with W6/32 (E:T 25:1): 6.2%
  specific lysis value without W6/32 (E:T 25:1): 23.2%

— patent US6656471
